Data on four substances can be found in patent CN101151278A.

The target in one assay is 大鼠FcRn (rat) (UniProt P13599). In words: BIAcore, FcRn on CM5 chip.
The target in assay [1] is T1, CD20 on WIL2-S cells (human) (UniProt P11836).
T1 sequence (looked up): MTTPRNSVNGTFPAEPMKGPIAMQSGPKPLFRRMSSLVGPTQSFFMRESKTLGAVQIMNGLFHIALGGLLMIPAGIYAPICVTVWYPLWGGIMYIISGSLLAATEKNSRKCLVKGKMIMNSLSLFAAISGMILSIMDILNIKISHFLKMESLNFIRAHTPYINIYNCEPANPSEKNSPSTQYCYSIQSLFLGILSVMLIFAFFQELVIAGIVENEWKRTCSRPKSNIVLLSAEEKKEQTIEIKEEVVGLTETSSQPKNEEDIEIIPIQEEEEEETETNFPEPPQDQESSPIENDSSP
Kind of assay: cell-based or functional assay.

Another assay addresses 人FcRn (human) (UniProt P55899). Kind of assay: BIAcore, FcRn on CM5 chip, pH 6.0. (Surface plasmon resonance follows binding to a sensor surface in real time, without labels.)

Chain of 人FcRn (human) (P55899 24-297 limits assumed, chain 1 of 2): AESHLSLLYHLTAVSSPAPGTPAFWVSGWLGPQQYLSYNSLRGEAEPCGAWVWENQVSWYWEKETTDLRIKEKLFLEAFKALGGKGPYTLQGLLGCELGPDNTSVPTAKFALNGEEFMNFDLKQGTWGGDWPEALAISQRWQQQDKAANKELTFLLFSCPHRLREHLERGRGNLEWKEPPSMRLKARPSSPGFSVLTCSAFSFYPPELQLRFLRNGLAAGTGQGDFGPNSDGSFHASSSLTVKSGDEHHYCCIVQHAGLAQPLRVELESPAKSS
Chain of 人FcRn (human) (P61769 21-119 limits assumed, chain 2 of 2, further chain): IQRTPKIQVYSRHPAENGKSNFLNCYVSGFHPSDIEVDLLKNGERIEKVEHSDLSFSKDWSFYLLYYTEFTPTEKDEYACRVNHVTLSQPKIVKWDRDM
Chain of 大鼠FcRn (rat) (P13599 23-298 limits assumed, chain 1 of 2): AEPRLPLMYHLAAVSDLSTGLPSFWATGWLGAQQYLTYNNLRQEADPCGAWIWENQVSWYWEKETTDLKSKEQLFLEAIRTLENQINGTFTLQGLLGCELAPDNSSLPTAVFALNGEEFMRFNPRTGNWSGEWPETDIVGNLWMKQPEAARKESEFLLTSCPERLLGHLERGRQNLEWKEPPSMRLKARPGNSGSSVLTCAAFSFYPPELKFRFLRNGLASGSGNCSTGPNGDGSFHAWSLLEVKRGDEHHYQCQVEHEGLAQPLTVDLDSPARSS
Chain of 大鼠FcRn (rat) (P07151 21-119 limits assumed, chain 2 of 2, further chain): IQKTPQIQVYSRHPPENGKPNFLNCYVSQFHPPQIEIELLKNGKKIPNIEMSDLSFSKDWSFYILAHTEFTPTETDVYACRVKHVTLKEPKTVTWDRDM

In the assay with 大鼠FcRn (rat), “Fc变体 N434W (from UniProt P01857 114-330)” came in with a fold increase in binding vs wild-type Fc of 10 fold.

On to Rituxan (antibody), for which, in assay [1], the ADCC on WIL2-S cells with NK cells, EC50(变体)/EC50(2H7.v16) is 5.3; the ADCC on WIL2-S cells with NK cells, EC50(变体)/EC50(Rituxan) was determined as 1; the CDC on WIL2-S cells, EC50(变体)/EC50(Rituxan) is 1.

Substance “Fc变体 N434A+E380A+T307A (from UniProt P01857 114-330) (other; other documents disagree on this pair)” yielded a fold increase in affinity vs wild-type Fc in the assay with 人FcRn (human) of 14 fold.

“Fc变体 N434F (from UniProt P01857 114-330) (other; other documents disagree on this pair)”: in the assay with 人FcRn (human), the fold increase in affinity vs wild-type Fc worked out at 9 fold.
